Reference: US20160185837A1 (Medimmune Limited, priority 2013, published 2016)
Read-outs that look alike come from different tables or passages of the source.

Columns and labels:
Type in all cases: cell-based
[1] = biological target: T1, human GIP receptor (hGIPr) (Homo sapiens, UniProt P48546); assay: BSA-cAMP assay, cells expressing human GIP receptor; conditions: BSA-cAMP assay
T1 construct: expressed in transfected cells
T1 sequence (P48546 22-466): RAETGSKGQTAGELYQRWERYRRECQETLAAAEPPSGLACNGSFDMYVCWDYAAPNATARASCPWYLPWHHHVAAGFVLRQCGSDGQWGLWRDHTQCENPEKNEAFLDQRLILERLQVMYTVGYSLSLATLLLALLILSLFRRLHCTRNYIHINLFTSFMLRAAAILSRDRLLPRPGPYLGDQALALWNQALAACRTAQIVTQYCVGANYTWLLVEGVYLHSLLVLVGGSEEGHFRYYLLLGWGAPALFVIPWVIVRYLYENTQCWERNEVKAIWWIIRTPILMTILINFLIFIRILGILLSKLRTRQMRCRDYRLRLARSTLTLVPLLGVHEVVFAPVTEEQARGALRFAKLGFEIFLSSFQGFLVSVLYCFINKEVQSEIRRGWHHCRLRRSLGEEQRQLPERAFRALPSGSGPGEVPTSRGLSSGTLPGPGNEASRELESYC
Method: For human GIPr, two different lines were used, shown as “hGIPr” and “hGIPr (C3)” in Table 11.
(§1) One basic cAMP assays was performed, differing in the medium used for the assay, the “BSA-cAMP assay”:
(§2) BSA-based assay medium: 0.1% bovine serum albumin (BSA) in
(§3) In certain aspects, the assay can also be carried out in medium supplemented with serum albumin that corresponds to the receptor being tested, e.g., human serum albumin for testing cAMP activity at hGIPr or hGLP-1r, rat serum albumin for testing cAMP activity at rGIPr or rGLP-1r, and so on. […] All sample dilutions were made in duplicate.
(§4) A frozen cryo-vial of cells expressing the receptor of interest was thawed rapidly in a water-bath, transferred to pre-warmed assay media and spun at 240×g for 5 minutes. Cells were re-suspended in assay buffer at an optimized concentration (e.g., hGLP-1r and hGIPr cells at 0.5×10^5 cells/ml).
(§5) To this, 5 μL cell suspension was added and the plates incubated at room temperature for 30 minutes.
(§6) cAMP levels were measured using a commercially available cAMP dynamic 2 HTRF kit (Cisbio, Cat #62AM4PEJ), following the two step protocol as per manufacturer's recommendations. In brief; anti-cAMP cryptate (donor fluorophore) and cAMP-d2 (acceptor fluorophore) were made up separately by diluting each 1/20 in conjugate & lysis buffer provided in the kit. 5 μL anti-cAMP cryptate was added to all wells of the assay plate, and 5 μL cAMP-d2 added to all wells except non-specific binding (NSB) wells, to which conjugate and lysis buffer was added. […] Data was transformed to % Delta F as described in manufacturer's guidelines and then transformed to percent activation of maximal native agonist response and analysed by 4-parameter logistic fit to determine EC50 values.
(§7) We used unconstrained 4 parameter logistic fit of data, curve mid-point to determine EC50. This was tested on two occasions, not two batches.

[2] = biological target: T2, mouse GLP-1 receptor (mGLP-1r) (Mus musculus, UniProt O35659); assay: BSA-cAMP assay, cells expressing mouse GLP-1 receptor; conditions: BSA-cAMP assay
T2 construct: expressed in transfected cells; host or cells: HEK293s or CHO cells
T2 sequence (O35659 22-463): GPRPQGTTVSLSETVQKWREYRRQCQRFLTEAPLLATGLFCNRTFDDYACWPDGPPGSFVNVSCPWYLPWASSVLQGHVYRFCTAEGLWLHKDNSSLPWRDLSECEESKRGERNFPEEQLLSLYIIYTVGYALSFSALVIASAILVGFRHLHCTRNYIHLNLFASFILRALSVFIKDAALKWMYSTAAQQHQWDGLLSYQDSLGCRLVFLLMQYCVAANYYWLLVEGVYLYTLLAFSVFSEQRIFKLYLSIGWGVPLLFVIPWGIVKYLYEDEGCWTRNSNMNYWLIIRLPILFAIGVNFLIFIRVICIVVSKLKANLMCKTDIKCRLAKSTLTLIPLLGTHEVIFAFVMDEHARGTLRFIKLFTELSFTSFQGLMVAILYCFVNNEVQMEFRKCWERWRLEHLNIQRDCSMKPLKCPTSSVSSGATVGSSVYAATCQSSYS
Method: as §1, §2, §3, §4, §5, §6, §7
(§8) In order to be able to carry out in vivo studies in rodents, IP088 was tested for potency against the mouse receptors mGIPr and mGLP-1r as well as the rat receptors rGIPr and rGLP-1r, using cells expressing the respective receptors in the cAMP assay described above.

[3] = biological target: T3, rat GLP-1 receptor (rGLP-1r) (Rattus norvegicus, UniProt P32301); assay: BSA-cAMP assay, cells expressing rat GLP-1 receptor; conditions: BSA-cAMP assay
T3 construct: expressed in transfected cells; host or cells: HEK293s or CHO cells
T3 sequence (P32301 22-463): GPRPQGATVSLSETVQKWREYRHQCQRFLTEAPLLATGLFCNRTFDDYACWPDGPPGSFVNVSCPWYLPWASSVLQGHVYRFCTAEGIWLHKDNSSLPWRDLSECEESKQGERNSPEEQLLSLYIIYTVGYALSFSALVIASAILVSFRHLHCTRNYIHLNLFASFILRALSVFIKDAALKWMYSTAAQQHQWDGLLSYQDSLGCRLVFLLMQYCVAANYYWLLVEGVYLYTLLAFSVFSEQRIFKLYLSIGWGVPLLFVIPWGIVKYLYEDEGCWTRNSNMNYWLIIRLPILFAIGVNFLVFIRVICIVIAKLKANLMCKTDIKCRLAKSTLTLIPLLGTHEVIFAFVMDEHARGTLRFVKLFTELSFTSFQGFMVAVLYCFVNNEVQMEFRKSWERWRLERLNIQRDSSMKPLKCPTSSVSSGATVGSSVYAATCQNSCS
Method: as §1, §2, §3, §4, §5, §6, §7, §8

[4] = biological target: T4, human glucagon receptor (GCGr) (Homo sapiens, UniProt P47871); assay: BSA-cAMP assay, cells expressing human glucagon receptor
T4 construct: expressed in transfected cells; host or cells: HEK293s or CHO cells
Method: as §1, §2, §3, §4, §5, §6, §7

[5] = biological target: T5, mouse GIP receptor (mGIPr) (Mus musculus, UniProt Q0P543); assay: BSA-cAMP assay, cells expressing mouse GIP receptor; conditions: BSA-cAMP assay
T5 construct: expressed in transfected cells; host or cells: HEK293s or CHO cells
T5 sequence (Q0P543 19-460): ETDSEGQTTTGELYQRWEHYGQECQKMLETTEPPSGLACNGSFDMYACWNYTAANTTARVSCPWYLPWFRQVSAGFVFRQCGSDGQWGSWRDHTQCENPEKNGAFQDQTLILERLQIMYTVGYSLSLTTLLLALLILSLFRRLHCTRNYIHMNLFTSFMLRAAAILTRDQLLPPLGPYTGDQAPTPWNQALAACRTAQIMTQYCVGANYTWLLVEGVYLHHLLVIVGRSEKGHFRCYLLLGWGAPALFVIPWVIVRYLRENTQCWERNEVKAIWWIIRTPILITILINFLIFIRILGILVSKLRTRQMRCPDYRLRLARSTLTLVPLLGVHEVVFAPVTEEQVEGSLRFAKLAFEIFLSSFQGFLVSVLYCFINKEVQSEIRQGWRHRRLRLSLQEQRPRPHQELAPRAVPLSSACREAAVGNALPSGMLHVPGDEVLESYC
Method: as §1, §2, §3, §4, §5, §6, §7, §8

rat GIP receptor (rGIPr) = biological target: T6, rat GIP receptor (rGIPr) (Rattus norvegicus, UniProt P43219); assay: BSA-cAMP assay, cells expressing rat GIP receptor; conditions: BSA-cAMP assay
T6 construct: expressed in transfected cells; host or cells: HEK293s or CHO cells
T6 sequence (P43219 19-455): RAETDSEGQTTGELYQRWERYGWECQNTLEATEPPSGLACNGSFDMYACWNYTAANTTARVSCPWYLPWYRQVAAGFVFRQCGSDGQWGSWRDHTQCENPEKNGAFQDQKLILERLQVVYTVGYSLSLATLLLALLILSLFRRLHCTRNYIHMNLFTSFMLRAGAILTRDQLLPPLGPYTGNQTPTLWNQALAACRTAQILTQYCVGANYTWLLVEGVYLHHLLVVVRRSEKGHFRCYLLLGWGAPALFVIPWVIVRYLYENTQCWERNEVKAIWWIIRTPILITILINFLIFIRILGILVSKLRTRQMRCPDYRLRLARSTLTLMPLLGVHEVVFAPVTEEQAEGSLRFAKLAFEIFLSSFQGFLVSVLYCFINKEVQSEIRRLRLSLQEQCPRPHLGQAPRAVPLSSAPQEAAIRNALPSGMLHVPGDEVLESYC
Method: as §1, §2, §3, §4, §5, §6, §7, §8

[6] = biological target: T7, human GLP-1 receptor (hGLP-1r) (Homo sapiens, UniProt P43220); assay: BSA-cAMP assay, cells expressing human GLP-1 receptor; conditions: BSA-cAMP assay
T7 construct: expressed in transfected cells
Method: as §1, §2, §3, §4, §5, §6, §7

[7] = Batch 1, read-out: hGIPr cAMP activity EC50
[8] = Batch 1, read-out: mGLP1r cAMP activity EC50
[9] = Batch 1, read-out: rGLP1r cAMP activity EC50
[10] = Batch 1, read-out: hGCGr cAMP activity EC50
[11] = Batch 1, read-out: mGIPr cAMP activity EC50
[12] = Batch 1, read-out: rGIPr cAMP activity EC50
[13] = Batch 1, read-out: hGLP1r cAMP activity EC50

T7 sequence (P43220 24-463): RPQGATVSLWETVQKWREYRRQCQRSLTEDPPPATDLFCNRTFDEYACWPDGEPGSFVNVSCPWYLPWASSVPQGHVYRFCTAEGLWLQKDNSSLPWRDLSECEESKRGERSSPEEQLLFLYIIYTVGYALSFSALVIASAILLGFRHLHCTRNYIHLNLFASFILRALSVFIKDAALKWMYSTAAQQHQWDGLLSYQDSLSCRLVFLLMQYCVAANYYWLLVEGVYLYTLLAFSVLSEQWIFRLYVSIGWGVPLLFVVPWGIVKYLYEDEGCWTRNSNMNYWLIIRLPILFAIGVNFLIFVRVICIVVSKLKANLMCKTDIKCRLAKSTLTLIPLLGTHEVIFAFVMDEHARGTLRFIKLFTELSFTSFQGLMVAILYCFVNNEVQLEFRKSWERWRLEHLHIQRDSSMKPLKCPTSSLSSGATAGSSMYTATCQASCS
T4 sequence (P47871 26-477): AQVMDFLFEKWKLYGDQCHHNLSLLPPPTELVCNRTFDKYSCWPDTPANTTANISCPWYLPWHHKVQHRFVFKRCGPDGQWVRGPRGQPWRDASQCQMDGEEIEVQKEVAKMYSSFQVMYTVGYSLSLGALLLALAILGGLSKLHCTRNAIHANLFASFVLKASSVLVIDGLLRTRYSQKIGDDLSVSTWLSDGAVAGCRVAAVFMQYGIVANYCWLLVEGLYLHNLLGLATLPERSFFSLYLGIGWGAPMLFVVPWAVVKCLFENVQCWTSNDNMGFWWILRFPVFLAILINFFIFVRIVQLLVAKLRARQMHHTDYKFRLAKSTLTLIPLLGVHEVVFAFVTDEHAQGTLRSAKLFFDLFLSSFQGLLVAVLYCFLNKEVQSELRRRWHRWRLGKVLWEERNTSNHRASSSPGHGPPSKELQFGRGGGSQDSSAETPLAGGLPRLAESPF

EC50 ([1]; batch 1 unless a batch is given, read-out: cAMP activity hGIPr (EC50))	EC50 ([2]; read-out: cAMP activity mGLP1r (EC50))	EC50 ([3]; read-out: cAMP activity rGLP1r (EC50))	EC50 ([4]; batch 1 unless a batch is given, read-out: cAMP activity hGCGr (EC50))	EC50 ([5]; read-out: cAMP activity mGIPr (EC50))	EC50 (rat GIP receptor (rGIPr); read-out: cAMP activity rGIPr (EC50))	EC50 ([6]; batch 1 unless a batch is given, read-out: cAMP activity hGLP1r (EC50))	EC50 [1, 7]	EC50 [2, 8]	EC50 [3, 9]	EC50 [4, 10]	EC50 [5, 11]	EC50 (rat GIP receptor (rGIPr); [12])	EC50 [6, 13]	Substance
0.01 nM	6.8 nM	0.23 nM	240 nM	0.44 nM	0.02 nM	3.4 nM	–	–	–	–	–	–	–	IP289: Fc fusion, IgG1-TM(ΔK), SEQ ID NO:342; agonist peptide YSEGTFTSDYSKLLEKEAERLFIEWLLKGP (YSEGTFTSDYSKLLEKEAERLFIEWLLKGPGGGGGSGGGGSGGGGSGGGGSATHTCPPC)
–	–	–	–	–	–	–	0.021 nM	> 3640 nM	19 nM	53 nM	210 nM	0.11 nM	> 3640 nM	IP299: Fc fusion, IgG1-TM(ΔK), SEQ ID NO:351; agonist peptide YSEGTFISDYSKLLEEEAVRDFVEWLKAGG (YSEGTFISDYSKLLEEEAVRDFVEWLKAGGGGGGGSGGGGSGGGGSGGGGSATHTCPPC)
–	–	–	–	–	–	–	0.0058 nM	> 2740 nM	> 2740 nM	280 nM	0.02 nM	0.0067 nM	> 5480 nM	IP335 (YSEGTFISDYSIAMDKIHQQDFVNWLLAQKGGGGGSGGGGSGGGGSGGGGSA)
